Results published in the supplement of paper PMC12636428.

System: Saccharomyces cerevisiae
Experiment: transcriptional activation domain activity (GFP:mCherry ratio, weighted mean of sorted bins, harmonized to initial dataset scale) (arbitrary fluorescence ratio units); higher = stronger transcriptional activation
Settings: beta-estradiol 1 µM; induction time 4 h
Summary of the method: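 Protein tiles carrying barcodes and fused to an estradiol-inducible synthetic transcription factor were placed at the URA3 locus of yeast diploids with a GFP reporter. Following 4 hours at 30 °C in SC with 1 uM beta-estradiol, cells were sorted into 8 GFP:mCherry bins, barcodes were sequenced, and tiles with fewer than 50 reads were discarded. Activation activity is given as the read-weighted mean of bin median fluorescence, averaged across barcodes and linearly mapped to the initial dataset scale.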

Sequence: MILLQCIPPFFLFSFLYSFVFPSPLPTIYDLSFSVSFFLFLFPWLVEIQLCCC
- transcriptional activation domain activity: 52800

Sequence: MTTNRDKAFFFFFNCERPIFNFFFCPFFLFFYIPFYFPYPYFFSFSYFSFLYL
- transcriptional activation domain activity: 78200

Sequence: KHYRRRLLQRDILKRKRWSIGLKTLVLLRDLGVFVHHHTVVKALQMQFIVLFG
- transcriptional activation domain activity: 57200

Sequence: WLLCQVPTRNLGVLVFDSSKRYHLVHPDSPTGEQRHTQFVIVLFIVAFIRGVA
- transcriptional activation domain activity: 47700

Sequence: SRTTSLGVWFLVIQMIWYGLFGALYIWFFCQDWYLFDVHLVFDYLMRFILCLM
- transcriptional activation domain activity: 40700

Sequence: LAKARCGCCFQIGSLVELIKLCLLIMLLVVIYFVTVQALIAVLVSSKLCILVP
- transcriptional activation domain activity: 43800

Sequence: TLMVLCENSYTTISRFILLDSMLLFFTFTTMLCFARFHNLQSRSFSFQWWLWI
- transcriptional activation domain activity: 51800

Sequence: MMACLVSGIGWCLLYFTCMYLLLIYYILSLFYPPLASCNSFSFFFLSFFFFAG
- transcriptional activation domain activity: 67200

Sequence: IYVIGCQPRFKTKLVEDKAEKRKCRIVLVPIFSETGVLVLLNIRTLEVRTVRF
- transcriptional activation domain activity: 51700

Sequence: GGEGALTVAASARERERERERDREEREKREKRERARESQAVKRKKRPAEKEPP
- transcriptional activation domain activity: 38000

Sequence: GLAIIRWQRGFRDYDNVTFKRFDYEVGMSILGWAFHYFPFFLMARQLFLHHYL
- transcriptional activation domain activity: 52400

Sequence: AKSAQRRADEPGVMSLGELAVLWVKRARHLGQSLLRVVLVSYAVDLPANCVAL
- transcriptional activation domain activity: 30100

Sequence: DANDGRRTLLVVLGDHGMTAAGNHGGASAGETSAALVLASPLFSTVASAPARR
- transcriptional activation domain activity: < 6570

Sequence: ASGAAAPSGTPSLFGAKPAGTTAAPATSTPAGGLFGAASSAAPAASATTPTTG
- transcriptional activation domain activity: 47400

Sequence: APTLNYELARKFIENSEDALHNSETMDLLGTLSHGNDFALEYNFDFTLLNEID
- transcriptional activation domain activity: 121000

Sequence: VDTCRLSAPLVWWLTFGILCTMYLLVLEVILFGILVFMVLPFIMLLYSIMLLC
- transcriptional activation domain activity: 49100

Sequence: TPLRISLFLVRVRCRHPSYSKWLPVEIKRCGVLLMSRLSLSLYRIFLNHITLN
- transcriptional activation domain activity: 59900

Sequence: GGEDALGRAAEEEGVRSGGLSSEQQDREEARGEARDRQHRVACFGGRRECAGG
- transcriptional activation domain activity: 48500

Sequence: TPSSLLHLFPRVQEFLLFYSIHLSISWVWSCLILFYDVSFTIFSIFIILLLFL
- transcriptional activation domain activity: 60300

Sequence: PGEVSEAEANGDAPKADDAAAPESGEAAKPKKKKKKAAKKPKKEGEEGAAAAP
- transcriptional activation domain activity: 37700

Sequence: VSVRQASDGVGCLLEVMAHSRSVNAWTRVLKQLRLAQCVLLNIQQSLSQVWSM
- transcriptional activation domain activity: 77300

Sequence: KKEEVKQEPAAPTPAPAPAPTGASSDRGGRGQGRGRARGDSSRGGGGRAAAPP
- transcriptional activation domain activity: 38000

Sequence: GGERREREEGTERREKEEAGRRRRESGRGQEGKKRGEGGGGRKKRGRDGGGPG
- transcriptional activation domain activity: 38500

Sequence: MISWLLRFFWLPGGLFFIWCFFSVPFFALRFCSCRHSFFTTFFLCFFYFYFVT
- transcriptional activation domain activity: 67100

Sequence: KQYCVRPNSGRIEPGKDVEVQILLQAMKEDPPLDAKCRDKFLVQSVAVSADKE
- transcriptional activation domain activity: 40700

Sequence: RCSIIYAGCHCPMWMVLFVPGCLFGLSVALGTLWLVQASDMLFPHTNYILIYI
- transcriptional activation domain activity: 46700

Sequence: ACFLGYPIQIDPTFTDFELLSSFSGVIDSCAQSDTLWDFNSFDVAAVLSPLLD
- transcriptional activation domain activity: 143000

Sequence: ELPKKCDDKYWEHGDNYQEAIRQLPTKPSLVEFFNCLITLNRILALTLRMLYS
- transcriptional activation domain activity: 55200

Sequence: VSSCCPFPLFLFFSFFLSFFLPFLLSSFLSITQSSWPPFHCPCQDTFPFSLPF
- transcriptional activation domain activity: 28000

Sequence: WARNARKNKSTEEASAQEQRRGAQVIVIHPGSRFLRIGKASEVSPVTVLNVVA
- transcriptional activation domain activity: 55600

Sequence: MRPLSWRLWRTGDSNRELLSHFLFYLGLFFFFREWLFLVLFFLFLLLLLPGVR
- transcriptional activation domain activity: 26600

Sequence: MVLISFKSISPITSPILPTYHHHHHSFHHSIHHLLLIYYKLILLFLFFLIFYL
- transcriptional activation domain activity: 46800

Sequence: MAHLAYHPLYPLWDLLSHTLIMLIFLITLICLLCPFPSLFIFTPICLSVYLLI
- transcriptional activation domain activity: 27200

Sequence: MHYVFLPFFFFFLLFFLLFPLFFFFLPSFHLLLFLSSSLLLSFLSLAPATSHH
- transcriptional activation domain activity: 38800

Sequence: LHKRLEVTAYITCTRVIQRVVWFLLQGKYRLDYYWEEVWRALLNLLDFISNKI
- transcriptional activation domain activity: 71300

Sequence: PSEEAAAAAVEEEEDVTQPEKPKDPEPTPVQPKATPAPAPTPAKPAVPKSWAS
- transcriptional activation domain activity: 37300

Sequence: GLLKIVVILPVTDVPLPPYRVTPMFLGGMRDLVTHLLRRTSTILTCDRLWYLW
- transcriptional activation domain activity: 28400

Sequence: YIIPFAWLAAIGHFAVSLVIFDFAPLIHTWDVTLETLSHWLFYFRLSSILYNF
- transcriptional activation domain activity: 35200

Sequence: MKKKKGEGMKKERRRRGGEGGGKGALRREKKGTGTGKDGEREKQEKGEEGKCN
- transcriptional activation domain activity: 29900

Sequence: LPHFPIIHPSLLDLDLDSLQRYTNEDGYDDAENAQLFDRLSQGTDKEYDYEHY
- transcriptional activation domain activity: 71500

Sequence: MHSVTAALRSLSLAGRRSLSTSAPRWEQAAAEAVASTSTWTPQTQRTGVLARK
- transcriptional activation domain activity: 14900

Sequence: LVEFLFAVNDEVANVLLVFFCVFVAGYFILTSLPLLFQQCPFQTPLTSFFWYA
- transcriptional activation domain activity: 38600

Sequence: ANLYVVLTLYSYTWIQVLIVSLSILLYFVFIAIYSQFNTFIFAGHIRLFGNGL
- transcriptional activation domain activity: 57500

Sequence: ELSHPSALFCYILFRLFPIFMYLFGHLVLMLVTQESWFILYFIVLILLVAADF
- transcriptional activation domain activity: 60500

Sequence: AVDESSSEVKPAEPKADEGKPETASEENTAEASKPEAPKAEEANAEETAPAEG
- transcriptional activation domain activity: 51300

Sequence: TWKVIGLVWRCPELTEYLNKVILTIIIIRSESHFDSSIAALNESCLTPYGTVD
- transcriptional activation domain activity: 28800

Sequence: EFEVDSIDELVLILKESEQSDMLRRIGYCRKRMMSLLRLLVTKVDVVKTITKR
- transcriptional activation domain activity: 38100

Sequence: MPNAGIWCARWFIPLLFLPLPSASPYFLTVFIFSLIVQARPCFYCILMLTALF
- transcriptional activation domain activity: 58200

Sequence: IRTLRRSAREVLTVYWVLHGILPFPSIHSLDPYILSRRWSLCLNCLFLYALYF
- transcriptional activation domain activity: 49700

Sequence: RSHAGRGRSRSREKHEHHRSHHHREKRRRESEIERRDSKRAASPKSKPSENIH
- transcriptional activation domain activity: 27100

Sequence: ISGQEHKDMCRILLGLIIDLPLPSGQVTSRIIRLVHALLDFLYLAQLPSQTTN
- transcriptional activation domain activity: 61400

Sequence: MVVFLYLVIYHWSKVNRVSFRCAAFCCIAHLIENVFFVIMVKVKGPSKFCAGI
- transcriptional activation domain activity: 76900

Sequence: MIIIIIIIMGNRFMMMSFLFAFFSLFFFLMKFFLSFSFFLFLSFLLIMFAISL
- transcriptional activation domain activity: 62100

Sequence: MNQTSRFFSPFFLFLFLLFLSFLSPPPFLPSSLPFLLFLPFLPLSLSLLSLIF
- transcriptional activation domain activity: 15400

Sequence: RSSRSKRRSRSPHDSSHKRRSRKEGRRPPSRERDEEDGEKRRHRSSRSHRRRR
- transcriptional activation domain activity: 11400

Sequence: EGEKKDQESDEKESNEEKKDDVEKLTKEMDKVTIKGEKKILGKSKGFGFVCFS
- transcriptional activation domain activity: 7730

Sequence: LRNGYVDLGTHCITLFAQLMYVDCRTVFAEQIFTLAWYTTKGMGTIIATIGDY
- transcriptional activation domain activity: 43400

Sequence: MINCYAEVALFECCVMFILSPLPPFSLSPQYIFYTLLLYLHYQYFVYRNCALL
- transcriptional activation domain activity: 71500

Sequence: FALFPEDPIILTIFGFFFSIPCFYYIVAKPQYISASRFVLLTYNLTCLYCYNL
- transcriptional activation domain activity: 32600

Sequence: SGPRASSGAKAQSLSQRGAKRKAASTARTEGASSSKSSRARGGKARASRVAKT
- transcriptional activation domain activity: 32900

Sequence: ARLRALEIIRAGHEGGYDGFFWGAWIPGLFHGKMTDIIALLLTHWGNVRNPAS
- transcriptional activation domain activity: 65700

Sequence: EITNDESVEAHKEEQAVEAKEGSPEIAAEAEAEEGGAKPAEESKKPRKLIEEE
- transcriptional activation domain activity: 12500

Sequence: KGVAVADRVVKFVAGYVAYATEQDAAKRPEGEEDVETPSSRFVTKLLRHLLSG
- transcriptional activation domain activity: 56400

Sequence: GEGERGSDGRQKEGARERGRRRETRKQNQKRGRGGRGGRGRGEGGAKSETQET
- transcriptional activation domain activity: 17200

Sequence: EGSGEEAGGEGSGGEEDEEDEAGGGGDDADGRRGEDDGADEGTAGARAAAKAA
- transcriptional activation domain activity: 34900

Sequence: ALEKDKKEEPKEDSKKDESKTEKKEEEDNKDENGRPKLVVKRLRKETTAAAAV
- transcriptional activation domain activity: 20000

Sequence: MEGSEKAARVAPPAQRVRTGCLTCRKRHLKCDEAKPTCENCRKGRRECVRGLR
- transcriptional activation domain activity: 6710

Sequence: MSMFAMDFIIGHMVLFVLSPFTLVPYIDQLHSTMLFWLRPLLRLLRFYVHLYS
- transcriptional activation domain activity: 68200

Sequence: RRWTRSKWLLLCTYGMMFCIGLTMLLGCLLTWFRGYLRAEVITVGFKRILIIA
- transcriptional activation domain activity: 47500

Sequence: MVWIRSKSPIKWLYIWLYYVRRPRINVASYTTKWVTIESELVFLAENFLDDKC
- transcriptional activation domain activity: 33300

Sequence: GCEPKNQRIFYFHVLILQRSLMARLERHEEGLSTKEWRLVLGDHYWISHWKKV
- transcriptional activation domain activity: 51400

Sequence: MLHLVTCISPSLYTSIFFLYLFHYFPSSHFLLNCRTSMHFSLSRLTFIYVLVL
- transcriptional activation domain activity: 50200

Sequence: LLTFNLEVKRIWTLRWKLPKYLFVLNRYILPPFLFFEAFSNITYNLGKHVSRI
- transcriptional activation domain activity: 50800

Sequence: VTHHYGNRVGVRWLTNGIKCYYVPFAIIHRNAIFPTVWSLFPILRNILIRERI
- transcriptional activation domain activity: 63400

Sequence: MPSFTFAWPDRAYFYSLLVVSLLSAKFLHLFSHLTALPIFLFLLYFPTFVFLD
- transcriptional activation domain activity: 71900

Sequence: TSSPSGQNASSTSVALVVGSDEKLVKAVGEGLKSKLGIKGGGKGPRWTGKWTG
- transcriptional activation domain activity: 33700

Sequence: CRGFGFWVRVLLGICGVCGVVALRTYAIYHVFQLNLPSRGLRFYLPLLFYIAC
- transcriptional activation domain activity: 57100

Sequence: DDHRSRRYRDRGRDRDQDEDAEDSHRDRRRRRRSPDEGASRRHQRESHADGDG
- transcriptional activation domain activity: 35700

Sequence: LTHEPSKPPRRVPYTTLLHTVPLLIILTVLSAVVCYVHILLLRVFVKPVVIGT
- transcriptional activation domain activity: 46600

Sequence: LFSFSVAYRYFYFFWYVVLERQIRIFRWIAVSIFVWTLVIGFSLYQGLTKQYI
- transcriptional activation domain activity: 31800

Sequence: MLFPPPPFSLFFFSLPFFLFFKTDLFFPCLIFLIPLYPFSPLVGDRLAILLGV
- transcriptional activation domain activity: 55100

Sequence: MMLVSSRSFLYWYGVSLTLLLLSLEFVWSFLLFFTWLVTLSLFPFLSSVSHCH
- transcriptional activation domain activity: 60200

Sequence: ISCAVSACIVCVINCAVTVWASVNNKANKGVLFEGDCEKVRQMNTGLHLLINL
- transcriptional activation domain activity: 66400
